In assay [1] the target is T1, human receptor tyrosine kinase AXL (human, UniProt P30530 26-894).
T1 construct: also called hAXL; human AXL on NIH3T3-AXL cI.7, RatI-AXL cI.2 and human cancer cell lines
T1 sequence: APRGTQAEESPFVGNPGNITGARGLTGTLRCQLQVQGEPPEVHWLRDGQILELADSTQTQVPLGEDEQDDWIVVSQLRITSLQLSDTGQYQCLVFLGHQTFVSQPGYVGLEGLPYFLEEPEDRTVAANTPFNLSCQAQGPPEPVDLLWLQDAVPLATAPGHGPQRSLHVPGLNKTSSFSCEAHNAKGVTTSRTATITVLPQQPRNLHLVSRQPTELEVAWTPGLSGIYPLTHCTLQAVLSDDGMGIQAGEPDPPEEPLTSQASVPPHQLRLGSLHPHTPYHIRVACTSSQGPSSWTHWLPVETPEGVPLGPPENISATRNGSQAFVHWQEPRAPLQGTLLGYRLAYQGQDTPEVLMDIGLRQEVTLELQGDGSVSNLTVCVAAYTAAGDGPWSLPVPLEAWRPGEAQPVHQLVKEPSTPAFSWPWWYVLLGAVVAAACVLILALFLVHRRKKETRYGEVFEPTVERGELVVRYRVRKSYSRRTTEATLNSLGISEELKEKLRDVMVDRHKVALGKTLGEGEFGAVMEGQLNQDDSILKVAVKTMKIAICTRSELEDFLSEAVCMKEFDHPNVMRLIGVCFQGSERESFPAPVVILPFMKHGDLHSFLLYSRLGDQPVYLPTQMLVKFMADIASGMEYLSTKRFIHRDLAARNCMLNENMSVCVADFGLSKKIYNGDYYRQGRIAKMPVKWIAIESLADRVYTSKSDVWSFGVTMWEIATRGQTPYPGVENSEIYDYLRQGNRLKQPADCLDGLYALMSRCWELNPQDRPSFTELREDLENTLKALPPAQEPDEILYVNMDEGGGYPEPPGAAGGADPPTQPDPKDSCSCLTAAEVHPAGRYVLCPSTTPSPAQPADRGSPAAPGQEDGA
Briefly: FACS Scatchard on human AXL overexpressing NIH3T3 cells; apparent KD (KDapp). As to the method: Human AXL overexpression NIH3T3 cells were harvested by incubation with 10 mM EDTA in PBS and resuspended at 6 million cells per ml in FACS buffer (PBS pH 7.4, 3% FCS, 0.1% NaN3). In a round-bottom microtiter plate, 100 μl of cell suspension were added to 100 μl of antibody solution containing antibodies 11B7, 11D5, ch11B7-IgG1, ch11B7-IgG2, ch11D5-IgG1 or ch11D5-IgG2 at concentrations between 40 and 0.002 μg/ml (266 and 0.01 nM) in FACS buffer. Antibody binding was allowed to proceed for 2 hours on ice. Then, cells were washed twice with 250 μl FACS buffer per well, and resuspended in 200 μl of secondary antibody (anti-rat-PE; Jackson) diluted 1:50 in FACS buffer. After 45 minutes of incubation, cells were again washed twice in FACS buffer and resuspended in […] PBS for FACS analysis. Analysis was carried out on a Beckman-Coulter FACS FC500. To determine the apparent affinity constant KDapp, mean fluorescence values were plotted against the ratio of mean fluorescence and the corresponding antibody concentration ([M]). The calculated KDapp resulted from the inverse slope of the straight line are listed below: […]

Assay [2] has as its target T2, Human AXL-Fc (R&D Systems, #154-AL) (human, UniProt P30530 26-451).
T2 construct: Bought reagent; also called human AXL-Fc fusion protein; human AXL-Fc protein; not shown: Fc part of the bought fusion protein
T2 sequence: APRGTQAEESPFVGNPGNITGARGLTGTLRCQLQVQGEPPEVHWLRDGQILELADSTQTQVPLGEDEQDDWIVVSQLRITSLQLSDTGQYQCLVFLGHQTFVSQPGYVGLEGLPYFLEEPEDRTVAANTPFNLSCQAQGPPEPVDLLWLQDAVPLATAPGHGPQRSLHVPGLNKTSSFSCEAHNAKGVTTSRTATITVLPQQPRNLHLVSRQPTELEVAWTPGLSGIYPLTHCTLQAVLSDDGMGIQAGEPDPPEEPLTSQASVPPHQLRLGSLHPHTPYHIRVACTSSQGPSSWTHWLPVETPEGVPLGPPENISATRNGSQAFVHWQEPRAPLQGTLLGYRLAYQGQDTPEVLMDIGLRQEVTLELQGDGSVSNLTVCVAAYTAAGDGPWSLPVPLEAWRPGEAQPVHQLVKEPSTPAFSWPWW
The assay is described as follows: ELISA on plate-adsorbed human AXL-Fc (1 ug/ml), 5-fold antibody dilution series, AP-conjugated goat anti-human IgG, fluorescent substrate (Example 13). In general terms: ELISA stands for enzyme-linked immunosorbent assay.

The target of assay [3] is T3, NHis-hAXL26-131 (human AXL single IG domain) (human, UniProt P30530 33-138).
T3 construct: Made in E. coli; tag kept
The assay is described as follows: ELISA on plate-adsorbed human AXL IG-domain fragment (1 ug/ml), antibody at 0.04 ug/ml, fluorescent substrate (Example 16). As to the method:
Then, each solution was dispensed in the amount of […] to an Immuno Plate (manufactured by Nalge Nunc International K.K., #437111) and left standing overnight at 4° C. to adsorb the peptide onto the plate. On the next day, the wells were washed 5 times with a PBS-T solution (PBS and 0.05% (v/v) Tween 20). Then, a solution containing skim milk (manufactured by Morinaga Milk Industry Co., Ltd.) diluted with PBS to 5% was dispensed in an amount of 100 μl/well and left standing at room temperature for 2 hours. The solutions in the wells were removed, and the wells were washed 5 times with a PBS-T solution. The rat anti-human AXL monoclonal antibody #11B7 was diluted to 0.04 μg/ml with a PBS solution containing 0.5% skim milk. Then, the solution was dispensed in amount of 100 μl/well and left standing at room temperature for 2 hours. The wells were washed 5 times with a PBS-T solution. […] Then, a fluorescent substrate solution (manufactured by Roche Diagnostics K.K., #11681982001) was added in the amount of 100 μl/well to perform fluorescence reaction. The fluorescence intensity on the human AXL-IG domain-adsorbed plate was measured 15 minutes after the addition of the fluorescent substrate solution using a SpectraMax M5 (manufactured by Molecular Devices Corp.). […]

B1: chimeric anti-AXL antibody ch11B7-IgG1 (antibody, V domains shown)
VH: EVQLQESGPGLVKPSQSLSLTCSVTGYSITSNYWGWIRKFPGDKMEWMGYITYSGSTSYNPSLKSRISITRDTSKNQFFLQLNSVTSEDTATYYCAITTFYYWGQGVMVTVSS
VL: DIQMTQAPSSLPASLGDRVTITCRASQDIGNYLRWFQQKPGKSPRLMISGATNLAAGVPSRFSGSRSGSDYSLTISSLESEDMADYYCLQSKESPWTFGGGTKLELKR
notes: Rat/human chimera, human IgG1/kappa; also called chm11B7; chimeric anti-AXL mAb #11B7
As for B1, the Kd in assay [1] was determined as 600 pM. Moreover, the EC50 (read off the curve) (in general, the concentration that produces a half-maximal response) in assay [2] was about 0.02 µg/mL.

B2: rat anti-human AXL monoclonal antibody #11B7 (antibody, rat IgG1, V domains shown)
VH: EVQLQESGPGLVKPSQSLSLTCSVTGYSITSNYWGWIRKFPGDKMEWMGYITYSGSTSYNPSLKSRISITRDTSKNQFFLQLNSVTSEDTATYYCAITTFYYWGQGVMVTVSS
VL: DIQMTQAPSSLPASLGDRVTITCRASQDIGNYLRWFQQKPGKSPRLMISGATNLAAGVPSRFSGSRSGSDYSLTISSLESEDMADYYCLQSKESPWTFGGGTKLELKR
notes: Rat IgG1/kappa from hybridoma; also called I11B7; rat anti-AXL antibody 11B7
Regarding B2, the Kd in assay [1] was determined as 380 pM. The binding result in assay [3] was “no binding (tested: 0.04 ug/ml)”.

These data come from patent US20120117670A1 (U3 PHARMA, published 2012).
